T1: phi3T_93 (Bacillus subtilis phage phi3T)
T1 chain: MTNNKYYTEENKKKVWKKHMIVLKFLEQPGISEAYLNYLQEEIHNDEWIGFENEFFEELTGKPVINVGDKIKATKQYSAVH

T2: YosL^SPβ (Bacillus subtilis phage SPβ, UniProt O31877 1-117)
T2 chain: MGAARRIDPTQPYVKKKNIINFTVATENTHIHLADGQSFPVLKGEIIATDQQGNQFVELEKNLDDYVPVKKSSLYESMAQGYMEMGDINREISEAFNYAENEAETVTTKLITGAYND

T3: YosL^phi3T (Bacillus subtilis phage phi3T)
T3 chain: T2 chain

B1: AimX (natural protein)
chain: MKRALGKAISYEEMAKGYEEMAAINSIIAQEDNHLENEAEMIKTRYKTLAS
B2: MazF (enzyme)
chain: MIVKRGDVYFADLSPVVGSEQGGVRPVLVIQNDIGNRFSPTAIVAAIAAQIQKAKLPTHVEIDAKRYGFERDSVILLEQIRTIDKQRLTDKITHLDDEMMDKVDEALQISLALIDF
B3: MazE (natural protein)
chain: MSESSARTEMKISLPENLVAELDGVAMREKRSRNELISQAVRAYVSERTTRHNRDLMRRGYMEMAKINLNISSEAHFAECEAETTVERLVSGG

How the values were obtained:
Assay in all cases: BLI
MazF [1] = target: B2
phi3T_93 [2] = target: T1, phi3T_93
MazF [3] = target: B2
phi3T_93 [4] = target: T1, phi3T_93
YosL^SPβ [5] = target: T2, YosL^SPβ
YosL^phi3T [6] = target: T3, YosL^phi3T
YosL^SPβ [7] = target: T2, YosL^SPβ
YosL^phi3T [8] = target: T3, YosL^phi3T

B1
Kd (MazF [1]): 81.3 nM | Kd (phi3T_93 [2]): 184 nM | koff (MazF [3]): 0.0066 s⁻¹ | koff (phi3T_93 [4]): 0.045 s⁻¹

B2
Kd (YosL^SPβ [5]): 15 nM | Kd (YosL^phi3T [6]): 20.2 nM | koff (YosL^SPβ [7]): 0.00085 s⁻¹ | koff (YosL^phi3T [8]): 0.00033 s⁻¹

B3
Kd (MazF [1]): 404 nM | Kd (phi3T_93 [2]): 27.3 nM | koff (MazF [3]): 0.01 s⁻¹ | koff (phi3T_93 [4]): 0.0013 s⁻¹

Source: PMC10769878 (2024)
